Experimental data: patent US20150258194A1, “MODULATING TRANSENDOTHELIAL MIGRATION AND RECRUITMENT OF GRANULOCYTES BY MODULATING C-MET PATHWAY” (VIB VZW, priority 2012, published 2015)
Values belong to the molecule of their own block, whether it stands above or below them.

Experiments:
LLC cancer cells = assay: Cytotoxicity assay: LLC cancer cell killing by neutrophils; type: cell-based, mouse
Description: Cytotoxicity assay: LLC-shMet were transduced with a luciferase-expressing lentivirus (EXhLUC-Lvl 14 from GeneCopoeia); 104 LLC were seeded in DMEM 10% FBS in 96-multiwell. After 4 h, 0.2×10^6 neutrophils purified from the blood of LLC-tumor bearing mice or sorted from LLC-tumors were co-cultured with the LLC in DMEM 2% FBS for 4 hours at 37° C., with or without 100 ng/ml HGF or 1 mM L-NMMA (SIGMA). After washing, adherent cells were lysate in 0.2% Tryton 1 mM DTT.

[1] = tested on: Met expression in neutrophils; assay: Q-PCR / Western blot of Met expression in mouse neutrophils; type: cell-based; details: naïve mouse neutrophils
Description: Western blot: 2×10^6 bone marrow neutrophils from WT mice were stimulated with TCM, CCM, 100 ng/ml of murine TNF-α (or mock medium 0% FBS or 10% FBS as control) for 20 hours at 37° C. For the co-culture with HUVEC, a monolayer of HUVEC was stimulated for 4 hours with 5 ng/ml IL-1 at 37° C., and washed before neutrophil seeding. After 20 hours of stimulation, neutrophils were collected using Cell Dissociation Buffer, Enzyme Free, PBS-Based (Gibco). Cells were washed in PBS, lysed in 15 μl of a protease inhibitor mixture and incubated for 15 minutes on ice. The stock solution was obtained by dissolving one tablet of Complete Mini protease inhibitor mixture (CI, Roche) in 5 ml of PBS with 2 mM diisopropyl fluorophosphate (DFP; Acros Organics, Morris Plains, N.J.). After addition of an equal amount of 2×SDS sample buffer supplemented with 4% 2-mercaptoethanol, the lysates were boiled for 15 minutes and kept at -80° C. until use. 30×10^6 neutrophils purified from healthy volunteer blood and stimulated with A549-CM, 100 ng/ml of human TNF-α, 50 ng/ml LPS (or mock medium 10% FBS as control) for 20 hours. Cells were incubated with DFP 2.7 mM for 15' at 4° C., collected and washed in PBS, DFP 2.7 mM, CI 1X, and lysed in hot […] buffer (25% SDS 10%, 25% Tris-HCl pH 6.8) at 96° C. for 10'. Cell lysates were sonicated, cleared and quantified. 6× loading buffer was added before loading on the gel. The following antibodies were used: mouse anti-mouse Met (clone 3D4; Invitrogen), mouse anti-mouse β-actin (Santa Cruz), rabbit anti-human Met (clone D1C2-XP; Cell Signaling), HRP-conjugated anti-beta-tubulin (Abcam). Signal was visualized by Enhanced Chemiluminescent Reagents (ECL, Invitrogen) or West Femto by Thermo Scientific according to the manufacturer's instructions. Quantitative RT-PCR: for mRNA analysis, 1×10^5 or 3×10^5 mouse or human neutrophils, respectively, were incubated in normoxic (21% oxygen) or hypoxic condition (1% oxygen) or stimulated with TCM (plus 50 μg/ml Enbrel or human IgG when indicated), CCM, A549-CM, 100 ng/ml of murine or human TNF-α, 50 ng/ml LPS, or mock medium in 96-multiwell for 4 hours at 37° C. 2×10^5 HUVEC were seeded in 24-multiwell coated with 0.1% gelatin and stimulated with 5 ng/ml IL-1 in DMEM 10% FBS for 4 hours at 37° C. Cells were washed in PBS, collected in RLT buffer (QIAGEN®) and kept at -80° C. RNA was extracted with an RNase Micro kit (QIAGEN®) according to manufacturer's instructions. Reverse transcription to cDNA was performed with the SuperScript III Reverse Transcriptase (Invitrogen) according to manufacturer's protocol. […]

[2] = molecular target: MET (c-Met, HGF receptor) on mouse neutrophils (mouse) (UniProt P16056); assay: cell-based or functional assay
neutrophils [3] = assay: Nitric oxide measurement by FACS (DAF-FM) in neutrophils; type: cell-based, mouse; details: HGF 100 ng/ml
Description: Nitric oxide measurement by FACS: neutrophils isolated from the blood of WT or KO LLC tumor bearing mice were co-cultured for 4 hours with LLC shMet, washed, and resuspended in PBSHepes 20 mM, incubated for 10′ with 5 μM DAF-FM diacetate (Molecular probes) in the absence or presence of HGF (100 ng/ml) at 37° C., washed and analyzed by FACS.

Ly6G+ cells = assay: Air pouch assay: neutrophil exudation into subcutaneous air pouches; type: in vivo; details: 200 ng/mouse, 4 hours; for recruitment of Ly6G+ cells into air pouch: WT→WT mice
Description: Air Pouch Assay: to create subcutaneous air pouches, bone marrow transplanted WT and KO mice were injected with 3 ml of sterile air by dorsal subcutaneous injection with a butterfly 23G needle on day 0 and on day 3. On day 6, 200 ng/mouse of CXCL1 or murine HGF in 0.5 ml PBS-Heparin or PBS-Heparin as control, were injected in the dorsal camera created with the previous injection. After 4 hours, inflammatory cells were harvested by washing the pouch with 8 ml of PBS. Cells were stained with Ly6G-APC, washed and resuspended in PBS-BSA 0.1% with unlabeled counting beads and quantified with FACS Canto II (BD Bioscience).

β2-integrin = assay: Soluble ICAM-1 binding assay and co-immunoprecipitation of active β2-integrin; type: cell-based
neutrophils [4] = assay: Transmigration and migration assay of neutrophils; type: cell-based, mouse
Description: Transmigration and Migration Assay: For the transmigration assay, 2×10^5 HUVEC were seeded on 3 μm polycarbonate membrane (Transwell; Costar) previously coated with 0.1% gelatin in M199 20% FBS. After 12 h, HUVEC were stimulated for 4 hours at 37° C. in DMEM 10% FBS with 5 ng/ml IL-1 and then washed. 5×105 WBC were seeded on top of the endothelial monolayer, while mock medium (+/− decoy Met), TCM (+/− decoy Met) or 50 ng/ml murine HGF was added in the bottom. After 2 hours at 37° C., transmigrated cells were collected from the lower chambers and from the bottom part of the filter with cold PBS 0.5% EDTA. Cells were stained and Ly6G+ cells quantified as above. In the migration assays WBC were seeded directly on top of 3 μm polycarbonate porous membranes.

neutrophils [5] = assay: Adhesion assay: neutrophil adhesion to HUVEC; type: cell-based, mouse
Description: Adhesion Assay: 4×10^4 HUVEC were seeded in M199 20% FBS in 96-multiwell previously coated with 0.1% gelatin. After 12 h, HUVEC were stimulated with 5 ng/ml IL-1 in DMEM 10% FBS at 37° C. After 4 hours the endothelial monolayer was thoroughly washed and 2.5×105 WBC were seeded on top, with or without murine HGF (50 ng/ml). After 15′ non-adherent cells were washed out whereas adherent cells were detached by using Cell Dissociation Buffer, Enzyme Free, PBS-Based (Gibco). Cells were stained with Ly6G-APC, washed and resuspended in PBS-BSA 0.1% with unlabeled counting beads (BD Bioscience) and quantified with FACS Canto II (BD Bioscience).

Molecule: CNC(=N)NCCC[C@H](N)C(=O)O [L-NMMA, reference compound]
HGF-induced cytotoxicity of neutrophils (LLC cancer cells; HGF 100 ng/ml plus 1 mM L-NMMA): decreased HGF-induced cytotoxicity to the level of Met KO neutrophils
cytotoxicity of intratumoral WT neutrophils against cancer cells (LLC cancer cells; neutrophils sorted from LLC tumors, 1 mM L-NMMA): decreased the cytotoxicity of WT neutrophils to the levels of KO neutrophils

Molecule: TNF-a
upregulation of MET at RNA and protein levels [1]: able to upregulate MET

adhesion of neutrophils to an activated endothelium (HUVEC pre-stimulated with IL-1), FACS count [2]: 48%
Molecule: Hepatocyte Growth Factor (HGF), murine (from UniProt Q08048 33-728) (ligand)

active β2-integrin (immunoprecipitation) (β2-integrin; upon HGF stimulation): more active Iβ2-integrin
B1: HGF: Hepatocyte Growth Factor, the ligand of the MET tyrosine kinase receptor (protein)
chain: QKKRRNTLHEFKKSAKTTLTKEDPLLKIKTKKVNSADECANRCIRNRGFTFTCKAFVFDKSRKRCYWYPFNSMSSGVKKGFGHEFDLYENKDYIRNCIIGKGGSYKGTVSITKSGIKCQPWNSMIPHEHSFLPSSYRGKDLQENYCRNPRGEEGGPWCFTSNPEVRYEVCDIPQCSEVECMTCNGESYRGPMDHTESGKTCQRWDQQTPHRHKFLPERYPDKGFDDNYCRNPDGKPRPWCYTLDPDTPWEYCAIKTCAHSAVNETDVPMETTECIQGQGEGYRGTSNTIWNGIPCQRWDSQYPHKHDITPENFKCKDLRENYCRNPDGAESPWCFTTDPNIRVGYCSQIPKCDVSSGQDCYRGNGKNYMGNLSKTRSGLTCSMWDKNMEDLHRHIFWEPDASKLNKNYCRNPDDDAHGPWCYTGNPLIPWDYCPISRCEGDTTPTIVNLDHPVISCAKTKQLRVVNGIPTQTTVGWMVSLKYRNKHICGGSLIKESWVLTARQCFPARNKDLKDYEAWLGIHDVHERGEEKRKQILNISQLVYGPEGSDLVLLKLARPAILDNFVSTIDLPSYGCTIPEKTTCSIYGWGYTGLINADGLLRVAHLYIMGNEKCSQHHQGKVTLNESELCAGAEKIGSGPCEGDYGGPLICEQHKMRMVLGVIVPGRGCAIPNRPGIFVRVAYYAKWIHKVILTYKL
NO release of KO neutrophils (neutrophils [3]; Met KO circulating neutrophils with LLC): not
NO release of WT neutrophils (neutrophils [3]; WT circulating neutrophils with LLC): augmented
recruitment of neutrophils into air pouch in KO→WT mice (Ly6G+ cells): completely abolished
recruitment of Ly6G+ cells into air pouch (Ly6G+ cells): equally good in recruiting Ly6G+ cells
cytotoxicity of KO neutrophils (LLC cancer cells; Met KO circulating neutrophils with LLC, HGF 100 ng/ml): not
cytotoxicity of WT neutrophils (LLC cancer cells; WT circulating neutrophils with LLC, HGF 100 ng/ml): augmented
percentage of granulocytes bound to ICAM-1 (β2-integrin; soluble ICAM-1 binding assay): increases the percentage of granulocytes bound to ICAM-1
transendothelial migration of Met KO neutrophils (neutrophils [4]; Met KO neutrophils, inflamed-like endothelium): completely lost this response to HGF
transendothelial migration (chemotaxis) of WT neutrophils (neutrophils [4]; WT neutrophils, inflamed-like endothelium, HGF 50 ng/ml): promoted their chemotaxis through an inflamed-like endothelium
migration of neutrophils through a naked porous membrane or a non-activated endothelium (neutrophils [4]; no activated endothelium): did not influence the migration of neutrophils
upregulation of MET at RNA and protein levels [1]: not
adhesion of Met KO neutrophils to an activated endothelium (neutrophils [5]; Met KO neutrophils, HUVEC (IL-1)): did not modify the behavior of KO cells
increase of adhesion of WT neutrophils to an activated endothelium (neutrophils [5]; WT neutrophils, HUVEC (IL-1), HGF 50 ng/ml): 48%
neutrophil adhesion to nonactivated ECs (neutrophils [5]; nonactivated ECs): not affected

B2: CXCL1: well-known neutrophil chemoattractant, positive control of neutrophil migration (protein, UniProt P12850 25-96, looked up)
Growth-regulated alpha protein: APIANELRCQCLQTMAGIHLKNIQSLKVLPSGPHCTQTEVIATLKNGREACLDPEAPLVQKIVQKMLKGVPK
recruitment of neutrophils into air pouch in KO→WT mice (Ly6G+ cells): did not change
recruitment of Ly6G+ cells into air pouch (Ly6G+ cells): equally good in recruiting Ly6G+ cells

B3: decoy MET: soluble HGF-trap consisting of the extracellular portion of MET (protein, UniProt P08581 25-932, looked up)
extracellular domain: ECKEALAKSEMNVNMKYQLPNFTAETPIQNVILHEHHIFLGATNYIYVLNEEDLQKVAEYKTGPVLEHPDCFPCQDCSSKANLSGGVWKDNINMALVVDTYYDDQLISCGSVNRGTCQRHVFPHNHTADIQSEVHCIFSPQIEEPSQCPDCVVSALGAKVLSSVKDRFINFFVGNTINSSYFPDHPLHSISVRRLKETKDGFMFLTDQSYIDVLPEFRDSYPIKYVHAFESNNFIYFLTVQRETLDAQTFHTRIIRFCSINSGLHSYMEMPLECILTEKRKKRSTKKEVFNILQAAYVSKPGAQLARQIGASLNDDILFGVFAQSKPDSAEPMDRSAMCAFPIKYVNDFFNKIVNKNNVRCLQHFYGPNHEHCFNRTLLRNSSGCEARRDEYRTEFTTALQRVDLFMGQFSEVLLTSISTFIKGDLTIANLGTSEGRFMQVVVSRSGPSTPHVNFLLDSHPVSPEVIVEHTLNQNGYTLVITGKKITKIPLNGLGCRHFQSCSQCLSAPPFVQCGWCHDKCVRSEECLSGTWTQQICLPAIYKVFPNSAPLEGGTRLTICGWDFGFRRNNKFDLKKTRVLLGNESCTLTLSESTMNTLKCTVGPAMNKHFNMSIIISNGHGTTQYSTFSYVDPVITSISPKYGPMAGGTLLTLTGNYLNSGNSRHISIGGKTCTLKSVSNSILECYTPAQTISTEFAVKLKIDLANRETSIFSYREDPIVYEIHPTKSFISGGSTITGVGKNLNSVSVPRMVINVHEAGRNFTVACQHRSNSEIICCTTPSLQQLNLQLPLKTKAFFMLDGILSKYFDLIYVHNPVFKPFEKPVMISMGNENVLEIKGNDIDPEAVKGEVLKVGNKSCENIHLHSEAVLCTVPNDLLKLNSELNIEWKQAISSTVLGKVIVQPDQNFT
modifications: extracellular domain
TCM-induced transendothelial migration of Met KO neutrophils (neutrophils [4]; Met KO neutrophils, TCM, decoy Met): did not further impair the migration of Met KO neutrophils
TCM-promoted transendothelial migration of WT neutrophils (neutrophils [4]; WT neutrophils, TCM, decoy Met 0.5 ng/μl): abated this effect
